Results taken from patent US20220194996A1.

B1: Pro(Sol)-6C fusion protein, produced in L. lactis (protein)
chain: EYVDEKERQGEIYPFGDEEEKDEGGESFTYEKSEVDKTDLFKFIEGGEGDDVYKVDGSKVLLDDDTISRVSKKHTARDGEYGEYGEAVEDGENVIKIIRSVLQSGALPSVGVDELDKIDLSYETTESGDTAVSEDSYDKYASNNTNKEKESGSVSSEQLAQFRSLDEKKVIHGCNFSSNVSSKHTFTDSLDISLVDDSAHISCNVHLSEPKYNHLVGLNCPGDIIPDCFFQVYQPESEELEPSNIVYLDSQINIGDIEYYEDAEGDDKIKLFGIVGSIPKTTSFTCICKKDKKSAYMTVTIDSA
B2: Pro(CsLNK)-6C fusion protein, produced in L. lactis (protein)
chain: EYVDEKERQGEIYPFGDEEEKDEGGESFTYEKSEVDKTDLFKFIEGGEGDDVYKVDGSKVLLDDDTISRVSKKHTARDGEYGEYGEAVEDGENVIKIIRSVLQSGALPSVGVDELDKIDLSYETTESGDTAVSEDSYDKYASNNTNKENMPNDPNRNVDENANANSAVKNNNNEEEKKVIHGCNFSSNVSSKHTFTDSLDISLVDDSAHISCNVHLSEPKYNHLVGLNCPGDIIPDCFFQVYQPESEELEPSNIVYLDSQINIGDIEYYEDAEGDDKIKLFGIVGSIPKTTSFTCICKKDKKSAYMTVTIDSA
B3: Pro(Flex2)-6C fusion protein, produced in L. lactis (protein)
chain: EYVDEKERQGEIYPFGDEEEKDEGGESFTYEKSEVDKTDLFKFIEGGEGDDVYKVDGSKVLLDDDTISRVSKKHTARDGEYGEYGEAVEDGENVIKIIRSVLQSGALPSVGVDELDKIDLSYETTESGDTAVSEDSYDKYASNNTNKEGGGGSGGGGSGGGGSEKKVIHGCNFSSNVSSKHTFTDSLDISLVDDSAHISCNVHLSEPKYNHLVGLNCPGDIIPDCFFQVYQPESEELEPSNIVYLDSQINIGDIEYYEDAEGDDKIKLFGIVGSIPKTTSFTCICKKDKKSAYMTVTIDSA

Target: rat mAb 45.1 (against Pfs48/45 conformational epitope I)

Binder | % of folding [%]
B1 | 90
B2 | 75
B3 | 100
